Tests used:
AtALDH10A8 = target: T1, AtALDH10A8 (Arabidopsis thaliana, UniProt Q9S795); test: NADH formation at […] nm, substrate-inhibition Michaelis-Menten fit; assay type: biochemical; conditions: substrate inhibition (partial); 100 μM NAD+, pH 8.5, room temperature; apparent
T1 construct: gene ALDH10A8
T1 sequence (Q9S795 1-501): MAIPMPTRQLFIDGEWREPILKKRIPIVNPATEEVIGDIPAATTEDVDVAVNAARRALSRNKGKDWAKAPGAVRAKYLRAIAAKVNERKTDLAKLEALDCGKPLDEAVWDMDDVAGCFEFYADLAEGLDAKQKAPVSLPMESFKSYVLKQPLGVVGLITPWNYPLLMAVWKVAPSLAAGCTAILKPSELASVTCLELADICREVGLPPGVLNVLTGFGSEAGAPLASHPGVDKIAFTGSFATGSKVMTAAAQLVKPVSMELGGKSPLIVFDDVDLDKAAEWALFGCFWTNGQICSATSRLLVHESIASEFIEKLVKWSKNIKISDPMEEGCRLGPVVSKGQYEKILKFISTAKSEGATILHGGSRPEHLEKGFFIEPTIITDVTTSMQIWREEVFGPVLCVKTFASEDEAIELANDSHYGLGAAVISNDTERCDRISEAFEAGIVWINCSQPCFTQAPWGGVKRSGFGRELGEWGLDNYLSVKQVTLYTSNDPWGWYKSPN

AtALDH10A9 = target: T2, AtALDH10A9 (Arabidopsis thaliana, UniProt Q9STS1); test: as above; assay type: biochemical; conditions: 500 μM NAD+, pH 9.5, room temperature, apparent
T2 construct: gene ALDH10A9
T2 sequence (Q9STS1 1-503): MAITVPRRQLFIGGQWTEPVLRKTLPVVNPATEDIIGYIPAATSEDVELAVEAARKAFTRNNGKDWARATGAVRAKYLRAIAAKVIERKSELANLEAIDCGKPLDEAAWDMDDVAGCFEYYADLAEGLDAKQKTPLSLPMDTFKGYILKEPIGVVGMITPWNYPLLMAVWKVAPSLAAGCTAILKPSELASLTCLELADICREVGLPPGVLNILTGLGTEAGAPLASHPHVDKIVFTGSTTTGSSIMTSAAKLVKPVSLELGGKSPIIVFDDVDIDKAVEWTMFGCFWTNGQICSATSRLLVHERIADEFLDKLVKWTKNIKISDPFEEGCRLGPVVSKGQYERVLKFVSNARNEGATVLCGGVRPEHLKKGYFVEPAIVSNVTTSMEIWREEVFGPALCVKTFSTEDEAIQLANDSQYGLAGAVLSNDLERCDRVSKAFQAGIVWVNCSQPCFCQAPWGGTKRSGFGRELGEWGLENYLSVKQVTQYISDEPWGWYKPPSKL

purified protein [1] = substrate: NC(=O)c1ccc[n+]([C@@H]2O[C@H](COP(=O)(O)OP(=O)(O)OC[C@H]3O[C@@H](n4cnc5c(N)ncnc54)[C@H](O)[C@@H]3O)[C@@H](O)[C@H]2O)c1; test: purified protein; assay type: biochemical, Arabidopsis thaliana; conditions: apparent, varied: cofactor
purified protein [2] = substrate: NCCC=O; test: purified protein; assay type: biochemical, Arabidopsis thaliana; conditions: apparent
purified protein [3] = substrate: NCCCC=O; test: purified protein; assay type: biochemical, Arabidopsis thaliana; conditions: apparent
[4] = co-substrate 7 μM APAL (subsaturating), pH 8.5, room temperature
[5] = 100 μM NAD+, pH 8.5, room temperature
[6] = co-substrate 30 μM APAL (subsaturating), pH 9.5, room temperature
[7] = 500 μM NAD+, pH 9.5, room temperature

NCCCC=O [ABAL]
AtALDH10A8 / Kis (AtALDH10A8): 55.7 ± 26.0 µM
AtALDH10A9 / Kis (AtALDH10A9): 2600 ± 750 µM

NCCC=O [APAL]
AtALDH10A8 / Kis (AtALDH10A8): 5.5 ± 0.3 µM
AtALDH10A9 / Kis (AtALDH10A9): 19000 ± 5800 µM

B1: AtALDH10A8 (Arabidopsis thaliana) (protein)
chain: MAIPMPTRQLFIDGEWREPILKKRIPIVNPATEEVIGDIPAATTEDVDVAVNAARRALSRNKGKDWAKAPGAVRAKYLRAIAAKVNERKTDLAKLEALDCGKPLDEAVWDMDDVAGCFEFYADLAEGLDAKQKAPVSLPMESFKSYVLKQPLGVVGLITPWNYPLLMAVWKVAPSLAAGCTAILKPSELASVTCLELADICREVGLPPGVLNVLTGFGSEAGAPLASHPGVDKIAFTGSFATGSKVMTAAAQLVKPVSMELGGKSPLIVFDDVDLDKAAEWALFGCFWTNGQICSATSRLLVHESIASEFIEKLVKWSKNIKISDPMEEGCRLGPVVSKGQYEKILKFISTAKSEGATILHGGSRPEHLEKGFFIEPTIITDVTTSMQIWREEVFGPVLCVKTFASEDEAIELANDSHYGLGAAVISNDTERCDRISEAFEAGIVWINCSQPCFTQAPWGGVKRSGFGRELGEWGLDNYLSVKQVTLYTSNDPWGWYKSPN
Km (purified protein [1]; [4]): 13.2 ± 1.5 µM
kcat/Km (purified protein [1]; [4]): 260000 M⁻¹ s⁻¹
Km (purified protein [2]; [5]): 14.4 ± 2.7 µM
kcat/Km (purified protein [2]; [5]): 1.03e+06 M⁻¹ s⁻¹
Km (purified protein [3]; [5]): 25.1 ± 2.5 µM
kcat/Km (purified protein [3]; [5]): 60000 M⁻¹ s⁻¹

B2: AtALDH10A9 (Arabidopsis thaliana) (protein)
chain: MAITVPRRQLFIGGQWTEPVLRKTLPVVNPATEDIIGYIPAATSEDVELAVEAARKAFTRNNGKDWARATGAVRAKYLRAIAAKVIERKSELANLEAIDCGKPLDEAAWDMDDVAGCFEYYADLAEGLDAKQKTPLSLPMDTFKGYILKEPIGVVGMITPWNYPLLMAVWKVAPSLAAGCTAILKPSELASLTCLELADICREVGLPPGVLNILTGLGTEAGAPLASHPHVDKIVFTGSTTTGSSIMTSAAKLVKPVSLELGGKSPIIVFDDVDIDKAVEWTMFGCFWTNGQICSATSRLLVHERIADEFLDKLVKWTKNIKISDPFEEGCRLGPVVSKGQYERVLKFVSNARNEGATVLCGGVRPEHLKKGYFVEPAIVSNVTTSMEIWREEVFGPALCVKTFSTEDEAIQLANDSQYGLAGAVLSNDLERCDRVSKAFQAGIVWVNCSQPCFCQAPWGGTKRSGFGRELGEWGLENYLSVKQVTQYISDEPWGWYKPPSKL
Km (purified protein [1]; [6]): 86 ± 16 µM
kcat/Km (purified protein [1]; [6]): 150000 M⁻¹ s⁻¹
Km (purified protein [2]; [7]): 17.3 ± 4.1 µM
kcat/Km (purified protein [2]; [7]): 820000 M⁻¹ s⁻¹
Km (purified protein [3]; [7]): 460 ± 65 µM
kcat/Km (purified protein [3]; [7]): 20000 M⁻¹ s⁻¹

Reference: paper PMC5057122, “Arabidopsis aldehyde dehydrogenase 10 family members confer salt tolerance through putrescine-derived 4-aminobutyrate (GABA) production” (Scientific Reports, 2016)
